Test results taken from patent US20060281899A1, “Mutants of biotin binding protein” (priority 2002, published 2006).
Where two headings read alike, the source gives them in different places.

Legend:
[1] = Differential scanning calorimetry of the avidin mutants; assay type: physicochemical; settings: DSC, 100 mM Na-phosphate buffer pH 7.4
Protocol: In order to study the thermal stability of the purified avidin mutants, they were subjected to analysis by differential scanning calorimetry. A Nano II differential scanning calorimeter (Calorimetric Science Corporation, Provo, Utah) was used. […] The reference cell was filled with the same buffer that the sample proteins were dissolved in (100 mM Na-phosphate buffer pH 7.4). The thermograms were recorded as a function of temperature, between 25 and 130° C. at a temperature scan rate of 55.6° C./h. The baselines were subtracted and the transition midpoints (Tm) of the samples were calculated using proprietary software provided by the instrument manufacturer.

[2] = Differential scanning calorimetry of avidin and AVR4/5 forms; assay type: physicochemical
Protocol: The thermodynamics of the heat-induced unfolding of the proteins were studied using DSC. The transition midpoint of heat-induced denaturation (Tm) of the avidin and different AVR4/5 forms was studied using a Nano II differential scanning calorimeter (Calorimetric Sciences Corporation, Provo, Utah, USA). The reference cell was filled with buffer whereas the sample cell was filled with proteins dissolved in 50 mM sodium phosphate buffer, pH 7.0 containing 100 mM NaCl. Avidin and AVR4/5(C124S) were also analyzed in 50 mM Na-acetate pH 4.0 containing 100 mM NaCl. Furthermore, AVR4/5 was analyzed in the presence of 2-mercaptoethanol (0.4% v/v). The samples (1.6-9.6 μM) were analyzed both in the absence and presence of a three fold molar excess of biotin/subunit. All samples were degassed before being loaded into the DSC. The thermograms were recorded as a function of temperature; between 25 and 130° C. at a rate of 55.6° C./h (Gonzalez, M., Argarana, C. E. & Fidelio, G. D. (1999) Biomol. Eng. 16, 67-72; Nordlund, H. R., Laitinen, O. H., Uotila, S. T., Nyholm, T., Hytönen, V. P., Slotte, J. P. & Kulomaa, M. S. (2003) J. Biol. Chem. 278, 2479-2483). Data was analyzed using Microcal Origin 6.0 and Cpcalc 2.1 (Applied Thermodynamics, Hunt Valley, Md.). The change in heat capacity upon unfolding (ΔCp) was measured for avidin and AVR4/5(C124S) using DSC data from measurements in pH 4.0 and 7.0. ΔCp was then obtained from the slope of ΔH vs. Tm (Liu, Y. & Sturtevant, J. M. (1996) Biochemistry 35, 3059-3062).

[3] = 2-iminobiotin cuvette, cited from earlier work

With “wt Avidin: Wild-type chicken avidin (SEQ ID NO 1), purified from chicken egg-white [reference compound]” the Tm ([1]; + biotin (biotin:avidin molar ratio 3:1)) was 118.2 ± 0.1 °C, the Tm ([1]; without biotin) was 85.5 ± 0.1 °C and the “Tm at pH 4” value ([2]; 50 mM Na-acetate pH 4.0, 100 mM NaCl) was 76.6±0.2 °C. The “DSC Tm(−biotin)” value ([2]; 50 mM sodium phosphate pH 7.0, 100 mM NaCl) was 83.5 ± 0.1 °C, the ΔTm ([2]; change in Tm upon addition of a three-fold molar excess of biotin) was 33.5 °C and the ΔH of unfolding ([2]; sample without biotin) was 78.6 ± 1.2 kcal/mol. The “ΔCp (change in heat capacity upon unfolding)” value ([2]; slope of ΔH vs. Tm, DSC at pH 4.0 and 7.0) was 0.00366 kcal/mol, the “DSC Tm (+biotin)” value ([2]; three-fold molar excess of biotin, pH 7.0) was 117.0 ± 0.7 °C and the Kd ([3]; avidin values from Laitinen 2002 / Marttila 2000, read-out: Kd calculated from the equilibrium response data) was 17 nM. For the same substance, the kass ([3]; avidin values from literature) was “(1.6 ± 0.7) × 10^4 M^−1 s^−1” and the Kd ([3]; avidin values from literature, read-out: Kd calculated directly from the binding curves) was 20 nM.
